Results from the DeepSol protein solubility set.

Experiment: soluble on expression in E. coli; label from the status in PepcDB or PDB records

Row | Sequence | soluble on expression in E. coli
1 | MCELLGMSANVPTDICFSFTGLVQRGGGTGPHKDGWGITFYEGKGCRTFKDPQPSFNSPIAKLVQDYPIKSCSVVAHIRQANRGEVALENTHPFTRELWGRNWTYAHNGQLTGYKSLETGNFRPVGETDSEKAFCWLLHKLTQRYPRTPGNMAAVFKYIASLADELRAKGVFNMLLSDGRYVMAYCSTNLHWITRRAPFGVATLLDQDVEIDFSSQTTPNDVVTVIATQPLTGNETWQKIMPGEWRLFCLGERVV | not soluble
2 | MGSDKIHHHHHHGGCVRDVIDDVPGTDEDYAADKKDVVLIRMGTNDAEVKDITSRLFNNIPSSWEIGKKTIVDYDKMKDPETELNADIKNPKIYMTVILNIDDVISGKYPISLFRMLKFYKRDFYVIATQSTPEQKEEMLSLIGVYMEAGYYAINYDNVQHYRIFPSADPYAKDNMIGKGVASFNQKLLTRSADTLPEGNDPDPGYNAQMADKEALKRIEIYNRIYGYAQGDMNYSMQAVPYKMKPGAAPDVIIDNSWAIDAYNFQIYSKNNNCILSITNNAGNGFTANIKDYTTPKGANVYAYIWNLMREASSEITVHSDGGIFREISYQPQTVNHGASYTENSFWKVSVSVSPTKLEDKPWEAFKVSFGKESSTEVSYKTKSMDYSCKGQFGNGLYSKLWQFIPGEFYDRAEAFVYETSQGLRWIDAAQAMTPNYVTWGGWTLRQNYLNHINNSMKLHQQQCIYSLESDAQPGVVSVAITDAIDLQKTYVHYNCGIRYGHDSARTDLKMSKMVWIDFRQWDN | not soluble
3 | MGHHHHHHSHMAAEPVEDNCINFVAMKFIDNTLYFIAEDDENLESDYFGKLESKLSVIRNLNNQVLFIDQGNRPLFEDMTDSDCRDNAPRTIFIISMYKDSQPRGMAVTISVKCEKISTLSCENKIISFKEVNPPDNIKDTKSDIIFFQRSVPGHDNKMQFESSSYEGYFLTCEKERDLFKLILKKEDELGDRSIMFTVQNED | soluble
4 | MGDIMLIILTGLPGVGKSTFSKNLAKILSKNNIDVIVLGSDLIRESFPVWKEKYEEFIKKSTYRLIDSALKNYWVIVDDTNYYNSMRRDLINIAKKYNKNYAIIYLKASLDVLIRRNIERGEKIPNEVIKKMYEKFDEPGKKYKWDEPFLIIDTTKDIDFNEIAKKLIEKSKEIPKFYVLEENKNKNNNISDKIDKETRKIVSEYIKSKKLDKDKIKEVVELRKEFLKKIKKMEEVDADRVLKEFKDLLNSYLEHHHHHH | soluble
5 | MSWVQLAGHTGSFKAAGTSGLILKRCSEPERYCLARLMADALRGCVPAFHGVVERDGESYLQLQDLLDGFDGPCVLDCKMGVRTYLEEELTKARERPKLRKDMYKKMLAVDPEAPTEEEHAQRAVTKPRYMQWREGISSSTTLGFRIEGIKKADGSCSTDFKTTRSREQVLRVFEEFVQGDEEVLRRYLNRLQQIRDTLEVSEFFRRHEVIGSSLLFVHDHCHRAGVWLIDFGKTTPLPDGQILDHRRPWEEGNREDGYLLGLDNLIGILASLAER | soluble
6 | MRGSHHHHHHGSACCASRDDWRCARSMHEFSAKDIDGHMVNLDKYRGFVCIVTNVASQCGKTEVNYTQLVDLHARYAECGLRILAFPCNQFGKQEPGSNEEIKEFAAGYNVKFDMFSKICVNGDDAHPLWKWMKIQPKGKGILGNAIKWNFTKFLIDKNGCVVKRYGPMEEPLVIEKDLPHYF | soluble
7 | MSLALDGKSLSGFSHVHVGSLYNAEALEKSVEEMQVETSRRGYAFAVVRPRGDRNFDAHTVSIVFAIDEGPRTYIERINIRGNTRTRDYVIRREFDISEGDAYNRSLVDRAERRLKNLDFFKTVKITTEPGSSSDRVILDVDVEDKSTGDFSVSGGYSTTQGALAEVSVSERNLLGRGLYAKASVQYGQYARGYSLSFVEPYLLDYRVALGLDFYQREQLANQYISYNIKTLGFSPRLGFGLREDLTLQLRYSIFRQEIGLPTSLRNCNNNIGGPNYNPSPAFLNSIGQFNPNNPTLGCYSDGEASLPIRQELGGQTLTSMLGYTLTYNTLDNNKNPTDGLLIDFRQDFAGVGGDVKYLKTAIDAKYYQPLVSDIVGLVHLQGGILNNVGAYAGQNGIRMLDNFQMGPNLVRGFAPNGIGPRDINFLSTMDALGGTQYWGASVELQMPFWFLPKEVGLKGAVYADAGSLWGYKGPTSNLATNEFNAPGCMPSTSRSNPGTCAGLQFDDTNVVRTSVGVGLIWQSPFGPLRFDYAVPITKGKYDRVQEFRFGGGTTEGHHHHHH | not soluble
8 | MKGNALCTGEPVMTIETRGGGSEDIAVLPLDPTGNITRLFIRERCNDSSDPECKTGQWRLGSVDISRENTPASTRYAWRPGNNASEDDFEPLGMSLVPGNTPGEGTLFVIDIARPQSVRIWQLDISGGEITKATLATPADTQTGARLTAANSLQAVRNDDSRSFHLTITRFDEYGLLPFRPTPWPALVRINNGVIQPPPAQDFRNANGIIRPCAGCDLVIASYWERRLRFVSKENGEIGEYASAELPIRPDNLRLDGERILIAGQRRVDLTALNLLVSPHIPSPSGVYAIDTRSLGPDTVPTLLWEGGWKHGHSVATAVALPGNRLAIGQINTPGILIADCSPLEHHHHHH | not soluble
9 | MQALILEQQDGKTLASVQHLEESQLPAGDVTVDVHWSSLNYKDALAITGKGKIIRHFPMIPGIDFAGTVHASEDPRFHAGQEVLLTGWGVGENHWGGLAERARVKGDWLVALPAGLSSRNAMIIGTAGFTAMLCVMALEDAGIRPQDGEVVVTGASGGVGSTAVALLHKLGYQVAAVSGRESTHGYLKSLGANRILSRDEFAESRPLEKQLWAGAIDTVGDKVLAKVLAQMNYGGCVAACGLAGGFALPTTVMPFILRNVRLQGVDSVMTPPARRAEAWARLVKDLPESFYAQAATEITLADAPKFADAIINNQVQGRTLVKIK | not soluble
10 | MQELQLKVTQAQVEIIDREKFEQNINEVVAKYQNYAVTAGTIKDDKQVLADLRKLKKQLSDERIKVKKELSKPADDIDGYIKQASKPLDDTIDKIATDVKEFEDHQKALRLDTVKSYLSNKASEYMLDPRIFDEKAMEYTKAGNFMADGVTLKKVTMKSLEDLVTFEYQKEQEVEKAKATISGQCAEYGMTDQPYIRMLKEMTLVEVLGQIKADYLAEKQK | not soluble
11 | MLISKHEERVKSILSARMENGNLRSRENTQVEFKQSFNKGNIAIYAKTMAAFSNNSGGYIIFGIKDSPRSIIGLQNSNFENIQQEDLTDSINNLFSPSINELGSFILKEKEINSNGDVIIVQKIIGIYTEESNIKPVIAQKNNSSEKIVNGDIFYRYRARTEKIKYAEMEQIINCRMKQERDSLFKVFEFIRNNGATNLGIVDYNNGKLSTPYGVDVVLEKNLIAKLLKKAKFIKEGSFSENEGIPVIKVTGNINLAEEVPVPLENLDETYPYIQKQLAEKLNITPQKLYALIYFKMKESKKYHLEITTSKTNKTHKFSKFALLFLKEKIIELDENKNELEHHHHHH | not soluble
12 | MSSAKHFTEVLIGGKVYTLSGFEGEEYLQKVSSYLNHKITECANSEGYRKQSADTRNVLLALNIADDYFKAKKQGDSLESDIELKDKEMYDLKHELISVQIKLENAEKELAKMKEENNDLQMQIVKLETEMKNRRK | not soluble
13 | MSLAQLPSELLSLQLPLRIRIGDAQAFDLGPDPQVTMVIRDPTLLTEITHPSLDALGKAYVEKRLDIEGPISQVIGIGDALSEALGDPDGEASPVRESHDKATDAEAIHYHYDLSNDFYRLWLDPEMVYSCAYFETGREDLATAQLAKLRHLCRKLRLQPGEKLLDVGCGWGGLARLAAREFGVEVTGITLSKEQLALGQERVRAEGLEDRVTLKLLDYRDLPRDGRFDKVVSVGMFEHVGHANLGLYFQQLYDAVRPGGLVMNHGITSLYTDGRPVGKGAGDFIDRYVFPHGELPHLSLAVARMSEAGLEVVDVESLRLHYARTLDFWSANLEAKLKEAARLVPEETLRIWRLYLAGCAYGFKRGWINLHQILANRPHEDGSHELPWSRRDLYAEGHHHHHH | soluble
14 | MKSLEEKTIAKEQIFSGKVIDLYVEDVELPNGKASKREIVKHPGAVAVLAVTDEGKIIMVKQFRKPLERTIVEIPAGKLEKGEEPEYTALRELEEETGYTAKKLTKITAFYTSPGFADEIVHVFLAEELSVLEEKRELDEDEFVEVMEVTLEDALKLVESREVYDAKTAYAIQYLQLKEALQAQK | not soluble
15 | MAHHHHHHMANGVTANSMRVSVKAPDLGAFPLDHYRECKSEIEEYYTCLRSNDYVTPMCREQVRAYLQCRMDRGLMKPADIEGFGIPETEFVPMRQHRADIRQQWLRQKMNQVTAVWESYRRDDLNVPDGYERPRGSDSGGRPQPLPGETNKT | not soluble
16 | MNCREGCGACCIAPSISTPIPGMPQGKPAGERCLHLSVEHLCGLFGLPERPAVCGAFLADPEVCGESREEAIRLIGWWEQVTAALEHHHHHH | not soluble
